Ends that are not written are not given here.
Columns and labels:
CTGF [1] = molecular target: T1, CTGF (Mus musculus, UniProt P29268); test: DAB chromogenic imaging of DGC-labelled mouse brain sections; design: species or system APP/PS1 and wild-type C57BL/6J mice; settings: 200 μM DGC + DAB
T1 construct: brain sections of the age-matched wild-type C57BL/6J mice were used as controls; from tissue; host or cells: brain of APP/PS1 transgenic and wild-type C57BL/6J mice (sections, living animal, perfused isolated brain)
T1 sequence (P29268 26-348): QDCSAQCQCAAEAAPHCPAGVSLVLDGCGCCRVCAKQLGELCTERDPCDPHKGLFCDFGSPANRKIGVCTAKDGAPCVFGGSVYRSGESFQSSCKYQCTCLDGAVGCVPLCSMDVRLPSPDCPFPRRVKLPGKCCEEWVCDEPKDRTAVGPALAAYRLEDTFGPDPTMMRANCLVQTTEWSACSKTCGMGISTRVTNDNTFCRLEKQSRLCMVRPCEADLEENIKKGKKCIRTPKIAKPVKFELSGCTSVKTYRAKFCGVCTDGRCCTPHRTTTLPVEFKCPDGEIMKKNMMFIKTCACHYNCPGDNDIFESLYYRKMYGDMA
Procedure: To observe the expression level of CTGF in the brain section with the naked eye, we optimized the conditions for labeling WT mice, 3-month-old APP/PS1 mice and 9-month-old APP/PS1 mice stained with DGC. According to the study, the optimal incubation concentration of DGC (200 μM) was used to determine the conditions using the DAB Horseradish Peroxidase Color Development Kit. After the brain sections were co-stained by DGC (200 μM) at 4 °C overnight, a DAB chromogenic agent was added to the brain sections. […] After the brown product was imaged by optical microscopy and analyzed by Image Pro Plus software.

CTGF [2] = molecular target: T1, CTGF; test: DGC fluorescence labelling of AD mouse brain sections in vitro; design: species or system APP/PS1 and wild-type C57BL/6J mice; settings: 200 μM DGC 4 °C overnight
Excerpt: To evaluate the expression of CTGF in the brain of AD mice and the efficacy of DGC in vitro, brain sections of APP/PS1 transgenic mice (derived from C57BL/6J) from 1-month to 9-month-old (1-, 2-, 3-, 6- and 9-month-old, female, n = 3) were used as AD model, and brain sections of the age-matched wild-type C57BL/6J mice were used as controls (female, n = 3). The brain sections were subjected to CTGF antibody immunofluorescence staining and DGC fluorescence imaging. The brains were collected and fixed with 4% PFA. The embedded brain was then sectioned using a microtome into 5-μm thick consecutive sections. The brain sections were immersed in Tris-EDTA buffer (pH = 9.0) at 95 °C for 15 min. The brain sections were then incubated with 3% bovine serum albumin for 1.5 h. Then, the brain sections were stained overnight at 4 °C with an anti-CTGF primary antibody (dilution 1:50, Abcam, Cat#ab6992). After restoring room temperature, they were washed with TBST (pH = 7.4, 3 × 5 min) and incubated with FITC-labeled Goat Anti-Rabbit IgG (h +L) (1: dilution 1:200, Bioss, Cat#bs-0370R-FITC) for 1 h. The brain sections were washed with TBST (pH = 7.4, 3 × 5 min). Finally, overnight staining with DGC (200 μM) at 4 °C and fluorescence imaging were obtained by the CLSM system.
Brain sections from female APP/PS1 double transgenic mice were used as AD models, and brain sections of the age-matched female wild-type C57BL/6J mice were used as controls to evaluate the availability of DGC in vitro. Three-month-old APP/PS1 mice (early-stage, unestablished Aβ plaques) and 9-month-old APP/PS1 mice (late-stage, established Aβ plaques) were chosen for comparison. All mice were purchased from Beijing HFK Bioscience Co., Ltd and handled in accordance with the Ethics Committee of Beijing University of Technology, China. To avoid the interference of strong background fluorescence signals of blood in cerebral microvessels, the blood vessels were emptied by cardiac perfusion with saline and PFA before dissociating the brain. After the completion of perfusion, the brain was collected and fixed with PFA for a longer time ex vivo. The embedded brain was then sectioned using a microtome into 5-μm thick continuous sections. The brain sections were labeled with DGC or CTGF, GFAP, and Aβ antibodies. Deparaffinization was performed first and antigen retrieval was implemented with immersion of the brain sections into Tris-EDTA buffer (pH = 9.0) at 95 °C for 15 min. Then, the brain sections were incubated with 3% bovine serum albumin for 1.5 h.
For fluorescence imaging of CTGF, the brain sections were stained with anti-CTGF primary antibody (dilution 1:50, Abcam, Cat#ab6992), anti-glial fibrillary acidic protein (GFAP) primary antibody (diluted 1:400, Proteintech, Cat#16825-1-AP) or anti-Aβ 17-24 (4G8, diluted 1:1000, BioLegend, Cat#SIG-39200) at 4 °C for 4 h. After they were washed by TBST (pH = 7.4, 3 × 5 min) at room temperature, the brain sections were incubated with the secondary antibody (FITC-labeled Goat Anti-Rabbit IgG (H + L) (1: dilution 1:200, Bioss, Cat#bs-0370R-FITC) for 1 h. After the brain sections were washed by TBST (pH = 7.4, 3 × 5 min). Finally, the brain sections were co-stained by DGC (200 μM) at 4 °C overnight, and the staining results were acquired on the CLSM system.

[3] = 3-month-old APP/PS1 mouse brain section, section 1
[4] = 3-month-old APP/PS1 mouse brain section, section 2
[5] = 3-month-old APP/PS1 mouse brain section, section 3
[6] = 9-month-old APP/PS1 mouse brain section, section 1
[7] = 9-month-old APP/PS1 mouse brain section, section 2
[8] = 9-month-old APP/PS1 mouse brain section, section 3

DAB chromogenic imaging intensity (CTGF [1]; [3]): 0.198 | DAB chromogenic imaging intensity (CTGF [1]; [4]): 0.151 | DAB chromogenic imaging intensity (CTGF [1]; [5]): 0.127 | DAB chromogenic imaging intensity (CTGF [1]; [6]): 0.282 | DAB chromogenic imaging intensity (CTGF [1]; [7]): 0.35 | DAB chromogenic imaging intensity (CTGF [1]; [8]): 0.237 | DAB chromogenic imaging intensity (CTGF [1]; WT mouse brain section, Image Pro Plus, section 1): 0.03 | DAB chromogenic imaging intensity (CTGF [1]; WT mouse brain section, Image Pro Plus, section 2): 0.061 | DAB chromogenic imaging intensity (CTGF [1]; WT mouse brain section, Image Pro Plus, section 3): 0.019 | FL intensity of DGC on brain section (CTGF [2]; [3]): 0.02124 | FL intensity of DGC on brain section (CTGF [2]; [4]): 0.02275 | FL intensity of DGC on brain section (CTGF [2]; [5]): 0.01511 | FL intensity of DGC on brain section (CTGF [2]; [6]): 0.0369 | FL intensity of DGC on brain section (CTGF [2]; [7]): 0.0329 | FL intensity of DGC on brain section (CTGF [2]; [8]): 0.0406 | FL intensity of DGC on brain section (CTGF [2]; WT mouse brain section, section 1): 0.00435 | FL intensity of DGC on brain section (CTGF [2]; WT mouse brain section, section 2): 0.0071 | FL intensity of DGC on brain section (CTGF [2]; WT mouse brain section, section 3): 0.0055
Substance: DGC: CTGF-targeting peptide-coated gold nanocluster: one Au26 gold nanocluster coated by eight DAG cyclic peptides, NIR-II and red fluorescence (CDAGRKQKC; also: cyclic peptide, ring not given here, eight peptides on one Au26 nanocluster via Cys Au-S bonds)

— PMC11169542, “A probe for NIR-II imaging and multimodal analysis of early Alzheimer’s disease by targeting CTGF” (Nature Communications, 2024)
